Data reported in the supplement of paper PMC9732359.
± gives the uncertainty stated by the source.

Experiment: protein stability index of a GFP-peptide fusion (yeast GPS) (PSI 1-4); higher = more stable; sorted into four equal gates, so the index is relative within each strain
In short: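 Plasmids isolated from each sorting gate were PCR-amplified and Illumina-sequenced, and barcodes assigned the reads to strains. The gates, four of equal size, were set by GFP/Cherry fluorescence ratio on mid-log cultures in leucine-free medium. These cultures were yeast carrying a pooled library of tiled 17-residue yeast protein peptides fused downstream of GFP on a plasmid that also expresses Cherry. The protein stability index is the sum of every gate's read frequency times its gate number.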

Sequence	protein stability index (doa10∆)	protein stability index (pdr5∆)	protein stability index (san1∆)	protein stability index (ubr1∆)
GWDSLASRNVWSFYNGN [SNU114]	2.99 ± 0.12	3.12 ± 0.077	3.48 ± 0.05	3.22 ± 0.066
YLYCLDNNITEMLEENF [YCG1]	2.3 ± 0.05	2.32 ± 0.046	2.63 ± 0.05	2.73 ± 0.039
AKLLQENDTTLVKTKEL [FAS1]	2.66 ± 0.14	2.08 ± 0.27		
SKFSKQQAKGAFQKVAA [RPL24A]	2.21 ± 0.065	2.7 ± 0.078	2.9 ± 0.05	2.54 ± 0.05
SVLQLFQSVQLNINNPN [SMC2]	1.88 ± 0.049	1.89 ± 0.045	1.68 ± 0.058	1.48 ± 0.04
LGPLFKKIVDDTIMENP [IRR1]	2.62 ± 0.071	2.88 ± 0.066	2.44 ± 0.13	2.82 ± 0.063
ALNSMCASIPIAIIKDT [RRP46]	1.48 ± 0.12	1.67 ± 0.08	1.8 ± 0.097	1.79 ± 0.073
ASLDGTIRLWECGTGTT [RPN14]	2.8 ± 0.093	2.91 ± 0.13	3.19 ± 0.069	2.78 ± 0.12
NVTSFMPFWKFFMKNFP [SRB8]	1.47 ± 0.053	1.63 ± 0.046	1.43 ± 0.068	1.35 ± 0.041
EREPVPLGILHIPICVT [RRP45]	1.81 ± 0.077	1.88 ± 0.06	1.47 ± 0.19	1.95 ± 0.059
AAQIFGSYNAFEPASRL [COR1]	2.33 ± 0.07	1.55 ± 0.064	1.41 ± 0.16	1.51 ± 0.082
RKLGLLGDKEDEKQSAK [MTW1]	3.37 ± 0.083	3.41 ± 0.09	2.94 ± 0.1	3.28 ± 0.067
YHSAGGRDKHALSLLYH [SSN3]	3.12 ± 0.082	3.02 ± 0.066	3.19 ± 0.059	3.32 ± 0.066
LPSDRCSKAMGDLASLV [RPP1]			3.15 ± 0.12	
HKTFLVANVKDLETLTM [RPL32]		3.39 ± 0.26	3.22 ± 0.09	2.83 ± 0.17
TKIDMPIKNRKNDTHYL [BRN1]	3.04 ± 0.07	3.05 ± 0.075	2.93 ± 0.055	2.94 ± 0.053
GLIPYPHHNQSPRNTYQ [RET1]	2.58 ± 0.078	2.77 ± 0.095	2.83 ± 0.069	2.93 ± 0.069
LTFHTLKKANIIYHTTF [YLR018C/POM34]	1.9 ± 0.036	2.25 ± 0.038	2 ± 0.05	1.98 ± 0.028
NRAARDRRAQRVAEKRD [RPL19A]	2.94 ± 0.12	2.69 ± 0.082	2.85 ± 0.089	3.19 ± 0.06
EDRNKIHQYLFQEGVVV [RPS10A]	2.37 ± 0.064	2.37 ± 0.06	1.66 ± 0.12	2.61 ± 0.058
KLNKVDKNELQQMIITR [SIR3]	3.12 ± 0.074	3.22 ± 0.07	3.28 ± 0.039	3.23 ± 0.043
VYLSLLDKDSSQSSAAA [RPN6]	3 ± 0.16	3.21 ± 0.069		3.03 ± 0.071
TNDGIERYSDKYLKKRK [RPC31]	3.23 ± 0.13	2.98 ± 0.18	3.43 ± 0.15	2.88 ± 0.091
LGKTIQTISLLTYLYEM [SNF2]	1.72 ± 0.093	2.5 ± 0.087	2.47 ± 0.081	2.38 ± 0.076
ANDEEAYIKLLDQTKDT [SNF2]	2.98 ± 0.088	3.21 ± 0.072	3.4 ± 0.069	3 ± 0.1
ITPSAMKLVPSIPPATI [RPB5]	2.32 ± 0.054	2.56 ± 0.069	2.35 ± 0.057	2.5 ± 0.054
SKVSIEQRKEAAEFVLA [RPN7]	2.12 ± 0.13	2.49 ± 0.15	2.45 ± 0.09	2.45 ± 0.06

Sequence	protein stability index (doa10∆)	protein stability index (pdr5∆)	protein stability index (san1∆)	protein stability index (ubr1∆)
LLAVAIAASYHYPEIED [RPP0]	1.38 ± 0.074	2.11 ± 0.11	1.73 ± 0.13	1.91 ± 0.08
ILSINAIDYEPEYEKAM [SMC1]	3.29 ± 0.076	3.1 ± 0.068	3.05 ± 0.049	3.13 ± 0.043
LDLKECYQFAEYLFKPQ [ARP7]	3.05 ± 0.084	3.06 ± 0.08	3.03 ± 0.063	2.97 ± 0.059
GHDADDGYQLFHAEPSG [PUP2]	3.37 ± 0.19	2.97 ± 0.18	3.42 ± 0.079	3.1 ± 0.14
SYYELETIIFDSELNRA [RRI1]	2.96 ± 0.11	3.13 ± 0.075	2.97 ± 0.056	2.93 ± 0.056
TAEAPTLSFNFSQKANK [YOR098C/NUP1]	3.27 ± 0.081	3.27 ± 0.086	3.24 ± 0.056	3.26 ± 0.085
KNDTKILVLALEDLKDV [PRP8]	1.6 ± 0.1	1.96 ± 0.099	1.55 ± 0.11	1.73 ± 0.055
HMSTYLKIYKVGDIVDI [RPL21B]	1.69 ± 0.036	1.64 ± 0.037	1.95 ± 0.052	1.95 ± 0.036
GSLARAGKVKSQTPKVE [RPS30A]	2.71 ± 0.06	2.7 ± 0.069	2.69 ± 0.058	2.57 ± 0.05
MATPSFGNSSPQLTFTH [YML103C/NUP188]	2.75 ± 0.12	2.1 ± 0.068	2.83 ± 0.067	2.73 ± 0.062
NWRGREHWKVRNFKKAN [BRN1]	3.43 ± 0.12	3.36 ± 0.12	3.52 ± 0.075	3.49 ± 0.1
QKSVSLLSSESNIPTLI [YDL116W/NUP84]	2.73 ± 0.056	2.69 ± 0.065	2.8 ± 0.039	2.67 ± 0.05
TTGSIFEKDLMAYFDEN [BRN1]	2.83 ± 0.055	3.15 ± 0.055	3.17 ± 0.043	3.13 ± 0.033
YKVENVTLYWNNAKLLT [ESC2]	1.71 ± 0.059	1.99 ± 0.051	1.71 ± 0.076	2.19 ± 0.043
VGGHNVTIREQINIMPS [SIR3]	2.91 ± 0.069	2.8 ± 0.066	2.71 ± 0.071	2.94 ± 0.067
GRFLRVPKEGLFYFDSS [BRR2]	3.18 ± 0.11	3.32 ± 0.073	3.3 ± 0.081	3.1 ± 0.054
VTNDDKSDDDDHTVDEI [SRB8]	2.67 ± 0.077	2.8 ± 0.085	3.07 ± 0.094	3.01 ± 0.045
IRFRIEREVFVDVKPKS [RPC25]	2.13 ± 0.12	2.66 ± 0.16	2.16 ± 0.13	2.12 ± 0.25
DQDRGAARHKQHEQGTF [RRI2]	3.21 ± 0.1	2.99 ± 0.23		
LAIIGDENPDLLGYTGI [PRE8]	1.71 ± 0.06	1.93 ± 0.081	2.73 ± 0.098	1.93 ± 0.054
RLYLKDQTNHIESDSIL [ECM29]	2.8 ± 0.062	2.76 ± 0.06	2.96 ± 0.048	2.62 ± 0.035
DAMVTRTPVIISLRNNH [SMD2]	1.61 ± 0.058	1.85 ± 0.056	1.43 ± 0.12	1.7 ± 0.073
DSYGQGSMTKTWYVGNS [SSN2]	2.94 ± 0.13	3.09 ± 0.16	3.34 ± 0.16	3.05 ± 0.088
PESIDTILSSKLSNIWM [SRB2]	2.72 ± 0.08	2.78 ± 0.095	2.92 ± 0.054	2.91 ± 0.042
KNISSQLDSKLMVFNDD [YGR119C/NUP57]	2.12 ± 0.041	2.54 ± 0.052	2.24 ± 0.056	2.08 ± 0.029
AQYFYSGAYSYPDFRHY [DIS3]	1.43 ± 0.056	1.43 ± 0.09	1.87 ± 0.16	1.56 ± 0.081
